Columns and labels:
[1] = biological target: the molecule itself; assay: SEC-MALS; static light scattering (SLS) on a Viscotek GPCmax/TDA with two TSKgel G3000PWxl columns in series; 75 μl of purified sample at about 1.5–2 mg/ml
αβ-tubulin hetero-dimers = αβ-tubulin hetero-dimers (UniProt P02554 1-445); assay: SEC; Superdex-200 Increase 3.2/300; 26 µM NuMA^2002–2115 and 20 µM αβ-tubulin hetero-dimers; GT buffer (80 mM PIPES pH 6.8, 1 mM MgCl2, 1 mM EGTA) with 60 mM NaCl and 1 mM DTT; Tris-Tricine-SDS-PAGE; conditions: both partners purified
[2] = biological target: T1, LGN^1–409 (TPR domain of LGN) (human); assay: SEC; analytical SEC, Superdex-200 Increase 3.2/300; LGN and NuMA variants mixed in equimolar amounts (20 μM; LGN^TPR:NuMA^PEPT 1:2); 20 mM Tris-HCl pH 8.0, 0.150 M NaCl, 5% glycerol, 1 mM DTT; fractions checked by SDS-PAGE
T1 sequence (P81274 whole entry, looked up): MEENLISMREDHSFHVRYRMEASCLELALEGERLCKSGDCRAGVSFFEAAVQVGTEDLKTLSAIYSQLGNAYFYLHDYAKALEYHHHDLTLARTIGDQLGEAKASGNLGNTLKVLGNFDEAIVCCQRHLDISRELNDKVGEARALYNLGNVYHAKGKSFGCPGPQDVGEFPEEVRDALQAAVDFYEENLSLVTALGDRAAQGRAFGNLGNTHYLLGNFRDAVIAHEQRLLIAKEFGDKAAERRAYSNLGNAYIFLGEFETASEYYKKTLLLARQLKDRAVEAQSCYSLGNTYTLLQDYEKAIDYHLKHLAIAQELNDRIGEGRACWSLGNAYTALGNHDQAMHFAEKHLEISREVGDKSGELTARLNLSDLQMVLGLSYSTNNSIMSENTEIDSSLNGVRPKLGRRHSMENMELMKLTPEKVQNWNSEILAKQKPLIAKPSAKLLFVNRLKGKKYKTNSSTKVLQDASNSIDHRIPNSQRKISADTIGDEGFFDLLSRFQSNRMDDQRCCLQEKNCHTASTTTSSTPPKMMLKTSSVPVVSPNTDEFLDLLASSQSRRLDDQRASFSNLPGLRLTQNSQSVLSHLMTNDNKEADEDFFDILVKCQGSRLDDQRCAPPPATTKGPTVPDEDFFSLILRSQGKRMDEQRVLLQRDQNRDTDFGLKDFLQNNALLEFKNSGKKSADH

[3] = biological target: LGN^TPR-ΔOLIGO (LGN^13–350) (human); assay: SEC-MALS; static light scattering (SLS) on a Viscotek GPCmax/TDA with two TSKgel G3000PWxl columns in series; 75 μl of purified sample at about 1.5–2 mg/ml
LGN^7–367 (human) = biological target: T2, LGN^7–367 (human); assay: as above
T2 sequence (P81274 whole entry, looked up): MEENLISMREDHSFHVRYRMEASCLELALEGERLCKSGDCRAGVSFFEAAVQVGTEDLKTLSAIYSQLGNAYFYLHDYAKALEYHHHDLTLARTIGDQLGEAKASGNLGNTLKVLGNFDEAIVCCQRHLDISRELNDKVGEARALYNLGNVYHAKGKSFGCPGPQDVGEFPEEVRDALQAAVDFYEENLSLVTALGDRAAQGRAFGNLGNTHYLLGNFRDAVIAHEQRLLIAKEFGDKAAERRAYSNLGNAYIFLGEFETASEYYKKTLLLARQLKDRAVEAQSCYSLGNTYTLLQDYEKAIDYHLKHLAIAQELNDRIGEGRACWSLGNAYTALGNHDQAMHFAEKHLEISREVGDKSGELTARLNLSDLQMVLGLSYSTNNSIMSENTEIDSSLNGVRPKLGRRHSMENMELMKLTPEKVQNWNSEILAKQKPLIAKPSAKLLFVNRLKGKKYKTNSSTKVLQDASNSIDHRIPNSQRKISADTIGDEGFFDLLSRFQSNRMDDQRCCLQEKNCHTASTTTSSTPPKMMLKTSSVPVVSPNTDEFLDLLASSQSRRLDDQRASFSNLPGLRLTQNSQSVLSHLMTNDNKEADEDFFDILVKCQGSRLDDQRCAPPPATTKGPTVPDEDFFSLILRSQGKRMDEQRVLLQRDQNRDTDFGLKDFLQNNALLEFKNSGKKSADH

LGN^1–350 (human) = biological target: T3, LGN^1–350 (human); assay: SEC + SEC-MALS; SEC and SLS assays on a battery of truncated LGN and NuMA mutants (Fig. 1c, d)
T3 sequence (P81274 whole entry, looked up): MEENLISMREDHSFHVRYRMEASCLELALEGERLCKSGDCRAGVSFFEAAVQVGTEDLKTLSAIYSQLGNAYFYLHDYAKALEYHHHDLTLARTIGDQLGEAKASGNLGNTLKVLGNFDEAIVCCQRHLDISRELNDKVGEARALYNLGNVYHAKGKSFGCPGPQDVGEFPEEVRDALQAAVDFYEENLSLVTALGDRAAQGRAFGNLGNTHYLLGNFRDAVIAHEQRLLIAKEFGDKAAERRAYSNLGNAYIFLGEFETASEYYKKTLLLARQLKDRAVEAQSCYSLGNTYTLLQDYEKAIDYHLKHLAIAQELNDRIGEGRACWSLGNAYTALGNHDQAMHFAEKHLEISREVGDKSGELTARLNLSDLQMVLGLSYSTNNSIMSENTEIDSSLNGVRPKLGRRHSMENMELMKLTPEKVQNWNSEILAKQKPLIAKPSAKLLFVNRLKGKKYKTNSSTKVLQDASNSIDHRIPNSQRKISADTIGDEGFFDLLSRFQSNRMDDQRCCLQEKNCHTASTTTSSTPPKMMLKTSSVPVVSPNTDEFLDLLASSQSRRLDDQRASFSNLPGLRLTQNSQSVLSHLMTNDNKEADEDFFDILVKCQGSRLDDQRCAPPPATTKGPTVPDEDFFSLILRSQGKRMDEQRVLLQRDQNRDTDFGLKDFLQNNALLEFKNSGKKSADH

LGN^13–409 (human) = biological target: T4, LGN^13–409 (human); assay: as above
T4 sequence (P81274 whole entry, looked up): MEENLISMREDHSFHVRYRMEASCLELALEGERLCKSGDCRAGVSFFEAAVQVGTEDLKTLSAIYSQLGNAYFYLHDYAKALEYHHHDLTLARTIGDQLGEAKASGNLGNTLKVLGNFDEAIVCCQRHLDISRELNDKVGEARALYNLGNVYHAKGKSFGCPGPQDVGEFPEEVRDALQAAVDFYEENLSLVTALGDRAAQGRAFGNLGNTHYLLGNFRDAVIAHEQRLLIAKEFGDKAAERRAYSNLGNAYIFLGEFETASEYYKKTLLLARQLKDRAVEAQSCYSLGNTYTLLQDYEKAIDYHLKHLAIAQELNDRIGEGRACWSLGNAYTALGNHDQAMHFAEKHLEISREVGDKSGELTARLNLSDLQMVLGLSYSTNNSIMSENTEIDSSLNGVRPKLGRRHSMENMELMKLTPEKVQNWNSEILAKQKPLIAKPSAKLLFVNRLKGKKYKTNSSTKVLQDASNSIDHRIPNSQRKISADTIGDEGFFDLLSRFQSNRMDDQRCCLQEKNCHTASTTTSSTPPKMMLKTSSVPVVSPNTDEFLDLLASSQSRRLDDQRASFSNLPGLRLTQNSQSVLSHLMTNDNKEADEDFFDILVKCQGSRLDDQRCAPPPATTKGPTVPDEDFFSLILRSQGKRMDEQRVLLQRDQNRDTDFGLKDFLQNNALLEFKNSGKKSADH

Sequence of αβ-tubulin hetero-dimers (P68363 whole entry, chain 1 of 2, the tested form may be a part): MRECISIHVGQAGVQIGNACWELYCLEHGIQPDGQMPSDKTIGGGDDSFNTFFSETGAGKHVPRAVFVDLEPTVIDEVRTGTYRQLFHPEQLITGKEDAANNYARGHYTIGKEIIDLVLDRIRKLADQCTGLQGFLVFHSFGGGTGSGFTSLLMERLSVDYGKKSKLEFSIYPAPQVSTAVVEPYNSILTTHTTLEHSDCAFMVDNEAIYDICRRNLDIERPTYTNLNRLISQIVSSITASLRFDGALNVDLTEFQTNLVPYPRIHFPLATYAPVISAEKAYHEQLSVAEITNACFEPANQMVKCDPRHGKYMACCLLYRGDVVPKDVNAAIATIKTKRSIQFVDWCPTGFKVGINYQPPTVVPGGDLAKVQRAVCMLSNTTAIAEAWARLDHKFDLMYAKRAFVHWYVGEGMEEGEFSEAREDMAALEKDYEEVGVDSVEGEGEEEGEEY
Sequence of αβ-tubulin hetero-dimers (P02554 whole entry, chain 2 of 2, the tested form may be a part): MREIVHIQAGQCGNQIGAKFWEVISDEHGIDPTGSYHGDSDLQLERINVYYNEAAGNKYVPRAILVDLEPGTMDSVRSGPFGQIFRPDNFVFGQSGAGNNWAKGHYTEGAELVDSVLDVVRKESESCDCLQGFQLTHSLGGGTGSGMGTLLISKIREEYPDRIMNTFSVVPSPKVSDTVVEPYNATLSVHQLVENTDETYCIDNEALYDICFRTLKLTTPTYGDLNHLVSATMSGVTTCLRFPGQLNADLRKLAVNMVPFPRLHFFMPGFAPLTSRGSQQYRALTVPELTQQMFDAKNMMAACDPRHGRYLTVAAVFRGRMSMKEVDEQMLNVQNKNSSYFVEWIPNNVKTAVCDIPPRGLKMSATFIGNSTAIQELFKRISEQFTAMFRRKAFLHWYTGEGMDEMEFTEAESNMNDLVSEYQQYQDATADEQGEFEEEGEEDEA

B1: NuMA^1592–1694 (domain or fragment, human, UniProt Q14980 1592-1694, looked up)
chain: QLNELQAQLSQKEQAAEHYKLQMEKAKTHYDAKKQQNQELQEQLRSLEQLQKENKELRAEAERLGHELQQAGLKTKEAEQTCRHLTAQVRSLEAQVAHADQQL
notes: NuMA, human, residues 1592-1694 (C-terminal portion of the coiled coil); also called C-terminal part of the NuMA coiled-coil
stoichiometry N [1]: 2

B2: NuMA^2002–2115 (domain or fragment, human, UniProt Q14980 2002-2115, looked up)
chain: ESKKATSCFPRPMTPRDRHEGRKQSTTEAQKKAAPASTKQADRRQSMAFSILNTPKKLGNSLLRRGASKKALSKASPNTRSGTRRSPRIATTTASAATAAAIGATPRAKGKAKH
stoichiometry N (αβ-tubulin hetero-dimers): 1

NSFYMGTCQDEPEQLDDWNRIAELQQRNR [NuMA^1900–1928]
stoichiometry N [2]: 1

B3: NuMA chimera (NuMA 1592–1694 joined to NuMA 1821–2001 by eight Thr-Gly-Ser repeats) (domain or fragment, human)
chain: QLNELQAQLSQKEQAAEHYKLQMEKAKTHYDAKKQQNQELQEQLRSLEQLQKENKELRAEAERLGHELQQAGLKTKEAEQTCRHLTAQVRSLEAQVAHADQQLTGSTGSTGSTGSTGSTGSTGSTGSKKLDVEEPDSANSSFYSTRSAPASQASLRATSSTQSLARLGSPDYGNSALLSLPGYRPTTRSSARRSQAGVSSGAPPGRNSFYMGTCQDEPEQLDDWNRIAELQQRNRVCPPHLKTCYPLESRPSLSLGTITDEEMKTGDPQETLRRASMQPIQIAEGTGITTRQQRKRVSLEPHQGPGTP
notes: NuMA, human, residues 1592-1694 (dimerizing coiled-coil); also called chimeric NuMA construct; source: E. coli BL21 Rosetta, purified (Ni HiTrap chelating, PreScission cleavage, Resource-Q, Superose-6)
stoichiometry N [1]: 2
stoichiometry N [3]: 1

B4: NuMA^1861–1928 (domain or fragment)
chain: GSPDYGNSALLSLPGYRPTTRSSARRSQAGVSSGAPPGRNSFYMGTCQDEPEQLDDWNRIAELQQRNR
stoichiometry N (LGN^7–367 (human)): 1
stoichiometry N (LGN^1–350 (human)): 1
stoichiometry N (LGN^13–409 (human)): 1
